Patent US20200055923A1 (HEXAL, published 2020)

Molecular target: T1, VEGF165 (human VEGF-A), immobilized (human, UniProt P15692-4 27-191)
T1 construct: Immobilized on the Biacore chip; also called vascular endothelial growth factor A
Test: SPR (Biacore), VEGF165 immobilized
Protocol: To study the binding of bevacizumab to VEGF, a surface plasmon resonance (SPR) assay using Biacore™ was carried out. The interaction between bevacizumab and its target, immobilized VEGF₁₆₅, is monitored in real time. Analysis of the association and dissociation of the binding partners allows the retrieval of the kinetic parameters kₐ (association rate constant) and kd (dissociation rate constant), which quantifies the interaction between bevacizumab or its variants and VEGF₁₆₅. Furthermore, the equilibrium dissociation constant KD is calculated using the formula KD=kd/kₐ.

T1 sequence (P15692 other isoform, or with tags, fused parts or gaps limits assumed): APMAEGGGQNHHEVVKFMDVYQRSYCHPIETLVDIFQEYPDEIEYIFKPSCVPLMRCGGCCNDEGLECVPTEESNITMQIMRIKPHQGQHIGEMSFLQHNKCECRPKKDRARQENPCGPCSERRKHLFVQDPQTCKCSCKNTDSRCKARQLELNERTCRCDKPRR

Kd: 0.235 nM
B1: bevacizumab CEX peak 1, fraction enriched in CDR-H1 glycosylated bevacizumab (antibody, human IgG1, kappa, V domains shown)
VH: EVQLVESGGGLVQPGGSLRLSCAASGYTFTNYGMNWVRQAPGKGLEWVGWINTYTGEPTYAADFKRRFTFSLDTSKSTAYLQMNSLRAEDTAVYYCAKYPHYYGSSHWYFDVWGQGTLVTVSS
VL: DIQMTQSPSSLSASVGDRVTITCSASQDISNYLNWYQQKPGKAPKVLIYFTSSLHSGVPSRFSGSGSGTDFTLTISSLQPEDFATYYCQQYSTVPWTFGQGTKVEIKR
modifications: N-linked complex-type glycan (core-fucosylated, mono- to tetra-antennary, partly sialylated) at N31 of the heavy chain, in CDR-H1
notes: Humanized IgG1; also called enriched CDR-H1 glycosylated bevacizumab obtained from CEX; Fd-glycosylated variant
